Source: patent US20260031189A1, “METHOD AND SYSTEMS FOR PREDICTION OF HLA CLASS II-SPECIFIC EPITOPES AND CHARACTERIZATION OF CD4+ T CELLS” (BioNTech US Inc., priority 2022, published 2026)

T1: HLA-DRA*01:01/DRB1*15:01 soluble heterodimer (human)
T1 chain 1: not shown
T1 chain 2: not shown

T2: HLA-DPA1*01:03/DPB1*04:01 soluble heterodimer (human), P20036
T2 chain 1: not shown
T2 chain 2: not shown


The binders below were run against HLA-DQA1*01:02/DQB1*06:02 soluble heterodimer (human), P01920 (assay: FP competition with FITC probe, HLA-sDM, average).

Binder	IC50 [nM]
IGINITRFQTLLA (modifications not checked) [S231-243]	> 50000
PDKVFRSSVLHSTQDL (modifications not checked) [S39-54]	1600
AAATAGTTVYGAKAA (modifications not checked)	1100
GGFNFSQILPDPS (modifications not checked) [S798-810]	1200
EIDRLNEVAKNLNES (modifications not checked) [S1182-1196]	> 50000
TQQLIRAAEIRASAN (modifications not checked) [S1009-1023]	520
LPDDFTGCVIAWNSNN (modifications not checked) [S425-440]	390

Biological target: T1, HLA-DRA*01:01/DRB1*15:01 soluble …
Experiment: FP competition with FITC probe, HLA-sDM, average

Binder	IC50 [nM]
ADAGFIKQYGDCLGDIA (modifications not checked) [S829-845]	56
PTESIVRFPNITNLCPF (modifications not checked) [S322-338]	26
FQTLLALHRSYLTPGDS (modifications not checked) [S238-254]	140
CSNLLLQYGSFCTQ (modifications not checked) [S749-762]	270

Biological target: T2, HLA-DPA1*01:03/DPB1*04:01 soluble …
Experiment: FP competition with FITC probe, HLA-sDM, average

Binder	IC50 [nM]
CTFEYVSQPFLMDLEGK (modifications not checked) [S166-182]	11
IGINITRFQTLLA (modifications not checked) [S231-243]	510
EKKYFAATKFEPLAARL (modifications not checked)	30
CEFQFCNDPFLGVYYHK (modifications not checked) [S131-147]	58
